Source: patent US20230040928A1 (INSERM INSTITUT NATIONAL DE LA SANTE ET DE LA RECHERCHE …, published 2023)

What was measured:
human HER4-Fc [1] = target: T1, human HER4-Fc (human, UniProt Q15303 26-651); experiment: ELISA, human HER4-Fc coated, concentration giving 50% absorbance
T1 construct: Bought protein; also called HER4-Fc antigen; not shown: Fc part of the bought fusion protein, not described
T1 sequence: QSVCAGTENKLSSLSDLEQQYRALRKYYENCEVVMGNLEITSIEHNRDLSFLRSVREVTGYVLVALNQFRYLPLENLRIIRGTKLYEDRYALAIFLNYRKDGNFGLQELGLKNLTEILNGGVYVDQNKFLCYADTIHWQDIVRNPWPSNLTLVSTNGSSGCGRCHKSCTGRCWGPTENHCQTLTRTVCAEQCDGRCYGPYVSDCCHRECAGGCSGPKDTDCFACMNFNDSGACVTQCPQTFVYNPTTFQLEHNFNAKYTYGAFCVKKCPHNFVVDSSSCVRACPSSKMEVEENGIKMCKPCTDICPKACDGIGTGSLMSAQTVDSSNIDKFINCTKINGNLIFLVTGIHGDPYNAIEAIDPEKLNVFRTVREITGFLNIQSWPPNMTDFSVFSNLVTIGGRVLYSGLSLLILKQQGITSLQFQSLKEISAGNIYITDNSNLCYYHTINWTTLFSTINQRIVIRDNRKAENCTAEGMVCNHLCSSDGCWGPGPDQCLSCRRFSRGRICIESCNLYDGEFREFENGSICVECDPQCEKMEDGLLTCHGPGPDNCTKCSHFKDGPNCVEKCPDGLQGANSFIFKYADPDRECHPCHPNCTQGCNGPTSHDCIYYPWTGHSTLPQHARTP
Method: (§1) Ninety six-well enzyme immunoassay plates (Nunc Maxisorp) were coated overnight at 4° C. with HER4-Fc antigen at a concentration of 250 ng/ml in PBS pH 7.4. After four washes in PBS, containing 0.1% Tween 20 (PBS-T), plates were saturated with a 2% solution of bovine serum albumin (BSA) in PBS-T buffer for 2 h at 37° C. Two-fold or ten-fold serial dilutions of purified HER4-specific mAbs were added after four washes in PBS-T and plates were incubated at 37° C. for 2 h. Following four washes in PBS-T, 100 μl of a peroxidase-conjugated goat anti-human F(ab′)2 antibody (Jackson Immunoresearch) were added to each well. The conjugate was used at a 1:5000 dilution in PBS-T-2% BSA. The plates were incubated at 37° C. for 1 h and then washed three times in PBS-T and once in PBS. Finally a Tetramethylbenzidine solution (Sigma) was added for 30 min at ambient temperature in the dark. The reaction was stopped by adding 50 μl/well 1M […] and the absorbance was measured at 450 nm. […] HER4-specific antibodies D5 and C6, giving 50%-absorbance at concentration of 20 ng/ml and 100 ng/ml respectively, on human HER4-Fc, are more efficient for binding than F4 and H2, which gave a 50%-absorbance at concentration around 1-5 μg/ml (FIG. 1).

HER3 receptor = target: T2, HER3 receptor (UniProt P21860 20-643, limits assumed); experiment: ELISA
T2 construct: also called ErbB3
T2 sequence (P21860 20-643 limits assumed): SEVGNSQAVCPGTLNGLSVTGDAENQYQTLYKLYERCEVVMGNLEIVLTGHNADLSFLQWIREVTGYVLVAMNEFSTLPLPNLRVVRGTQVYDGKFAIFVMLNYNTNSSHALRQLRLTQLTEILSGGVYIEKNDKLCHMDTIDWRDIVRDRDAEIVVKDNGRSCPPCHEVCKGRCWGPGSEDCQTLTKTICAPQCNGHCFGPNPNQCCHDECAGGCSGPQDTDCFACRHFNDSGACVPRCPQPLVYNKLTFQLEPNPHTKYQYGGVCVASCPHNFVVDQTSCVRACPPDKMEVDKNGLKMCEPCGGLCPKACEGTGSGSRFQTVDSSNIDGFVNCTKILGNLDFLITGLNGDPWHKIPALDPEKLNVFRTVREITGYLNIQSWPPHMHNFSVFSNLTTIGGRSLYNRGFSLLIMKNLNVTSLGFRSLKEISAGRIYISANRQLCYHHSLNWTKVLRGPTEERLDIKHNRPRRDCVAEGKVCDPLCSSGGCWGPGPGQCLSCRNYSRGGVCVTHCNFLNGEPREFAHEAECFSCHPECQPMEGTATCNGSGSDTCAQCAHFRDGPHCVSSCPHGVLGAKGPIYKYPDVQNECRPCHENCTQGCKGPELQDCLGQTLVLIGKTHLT

EGFR receptor = target: T3, EGFR receptor (UniProt P00533 25-645, limits assumed); experiment: ELISA
T3 construct: also called Her1; ErbB1

HER2 receptor = target: T4, HER2 receptor (UniProt P04626 23-652, limits assumed); experiment: ELISA
T4 construct: also called Neu; ErbB2

human HER4-Fc [2] = target: T1, human HER4-Fc; experiment: ELISA, HER4-Fc coated at 250 ng/ml, IgG in solution
Method: as §1

B1: C6 mAb (antibody, V domains shown)
VH: EVQLVESGGSLVKPGGSLRLSCAASGFTFSNYYMNWVRQAPGKGLEWISSISGSSRYIDYADFVKGRFTISRDNATNSLYLQMNSLRAEDTAVYYCVRSSSDYFGGGMDVWGRGTLVTVSS
VL: QSVLTQPASVSGSPGQSITISCAGTSSDVGGSYYVSWYQQHPGKAPKLMIYYDSYRPSGVSNRFSGSKSGNTASLTISGLQAEDEADYYCSSSTYNSTRVFGGGTKLAVLG
notes: also called antibody C6; Ab C6
For B1, the EC50 (human HER4-Fc [1]) was 0.1 µg/mL, the binding result (HER3 receptor) was “no binding” and the binding result (EGFR receptor) was “no binding”. B1: no binding (HER2 receptor).

B2: H2 mAb (antibody, V domains shown)
VH: EVQLVESGGSLVKPGGSLRLSCAASGFTFSNNDMNWVRQAPGKGLEWISDINGSSRYIYYADFVKGRFTISRDNATNSLYLQMNSLRAEDTAVYYCVRSSDDYFGGGMDVWGRGTLVTVSS
VL: QSVLTQPASVSGSPGQSITISCAGTSSDVGGYYSVSWYQQHPGKAPKLMIYNDSYRPSGVSNRFSGSKSGNTASLTISGLQAEDEADYYCSSSTYYSTRVFGGGTKLAVLG
notes: also called antibody H2
B2: no binding (HER3 receptor); no binding (EGFR receptor); no binding (HER2 receptor). B2: binds (human HER4-Fc [2]).

B3: F4 mAb (antibody, V domains shown)
VH: EVQLVESGGSLVKPGGSLRLSCAASGFTFSNNDMNWVRQAPGKGLEWISSISGSSRYINYADFVKGRFTISRDNATNSLYLQMNSLRAEDTAVYYCVRSSDDYFGGGMDVWGRGTLVTVSS
VL: QSVLTQPASVSGSPGQSITISCAGTSSDVGGYSGVSWYQQHPGKAPKLMIYNDSYRPSGVSNRFSGSKSGNTASLTISGLQAEDEADYYCSSYTNNSTRVFGGGTKLAVLG
notes: also called antibody F4
B3: no binding (HER3 receptor); no binding (EGFR receptor); no binding (HER2 receptor). B3: binds (human HER4-Fc [2]).

B4: D5 mAb (antibody, V domains shown)
VH: EVQLVESGGSLVKPGGSLRLSCAASGFTFSNYYMNWVRQAPGKGLEWISSIDGSSRYIDYADFVKGRFTISRDNATNSLYLQMNSLRAEDTAVYYCVRSSSDYFGGGMDVWGRGTLVTVSS
VL: QSVLTQPASVSGSPGQSITISCAGTSSDVGGSSYVSWYQQHPGKAPKLMIYYDSYRPSGVSNRFSGSKSGNTASLTISGLQAEDEADYYCSSNTYYSTRVFGGGTKLAVLG
notes: also called antibody D5; anti-HER4 antibody D5
For B4, the EC50 (human HER4-Fc [1]) was 0.02 µg/mL, the binding result (HER3 receptor) was “no binding” and the binding result (EGFR receptor) was “no binding”. B4: no binding (HER2 receptor).
